The target of the experiment is T1, LENG8(283–346) (human, UniProt Q96PV6 283-346).
T1 construct: LENG8, human, residues 283–346 (conserved helical region N-terminal to the SAC3 domain); also called LENG8^283–346 WT; source: recombinant
T1 sequence (looked up): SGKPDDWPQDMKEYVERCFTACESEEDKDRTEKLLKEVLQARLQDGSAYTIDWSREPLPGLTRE
As to the kind of experiment: pull-down; biotinylated, fluorescein-labelled ZFC3H1 peptide (200 µg) on magnetic streptavidin beads; 15 μg LENG8(283–346) or its F301A mutant added, 60 min at 4 °C; 25 mM HEPES pH 7.9, 100 mM NaCl, 5% glycerol, 1 mM MgCl2, 1 mM TCEP, 0.01% Igepal CA-630; glycine pH 2.5 elution; Coomassie and fluorescein imaging. Particulars: both partners purified.

The star is where a group is joined. Biotin = O=C1N[C@H]2[C@H](CS[C@H]2CCCCC(=O)*)N1; fluorescein = fluorescein label

B1: Biotin-ZFC3H1^728–752 wild-type peptide, C-terminal fluorescein (peptide, UniProt O60293 728-752, looked up)
peptide: Biotin-NSVFGGLESMIKEARRTAEQASKPK-fluorescein
notes: ZFC3H1, human, residues 728–752; also called ZFC3H1 peptide WT
As to B1, the binding result is reported as “binds”.
